Test results: publication PMC8079656, “The msaABCR Operon Regulates Persister Formation by Modulating Energy Metabolism in Staphylococcus aureus”

Experiments:
[1] = target: T1, MsaB-His (Staphylococcus aureus USA300 LAC, UniProt Q2FH36 1-66); test: EMSA; 5 mM MgCl2, poly(dI-dC); shift reversed by 100-fold unlabeled probe; conditions: protein: recombinant; tags: 6xHis; label: biotin (5'); blunt
T1 sequence: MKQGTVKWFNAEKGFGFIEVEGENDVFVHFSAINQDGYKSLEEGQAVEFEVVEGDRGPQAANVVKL

[2] = target: T1, MsaB-His; test: EMSA; 5 mM MgCl2, poly(dI-dC); shift reduced by 100-fold unlabeled probe; conditions: protein: recombinant; tags: 6xHis; label: biotin (5')
[3] = target: T1, MsaB-His; test: EMSA; 5 mM MgCl2, poly(dI-dC); conditions: protein: recombinant, tags: 6xHis, blunt

B1: ccpE promoter probe (ccpE_EMSA) (dsDNA)
DNA 1: GTTAGTAATGAACTCATGAATGCTTGTGCCATGAAAGTTCAATAATTGAATAATTTATGGGG
DNA 2: CCCCATAAATTATTCAATTATTGAACTTTCATGGCACAAGCATTCATGAGTTCATTACTAAC
binding result [1]: binds

B2: ndh2 ssDNA probe (ndh2_EMSA) (ssDNA)
DNA: GTCTTTTTTGTGAACATCACAGGTTTTTACATAATTTAAAAGACTTAAATAACAAAATGATGATAAACTAGTATA
binding result [2]: binds

B3: ndh2 dsDNA, same region (dsDNA)
DNA 1: B2 DNA
DNA 2: TATACTAGTTTATCATCATTTTGTTATTTAAGTCTTTTAAATTATGTAAAAACCTGTGATGTTCACAAAAAAGAC
binding result [3]: no binding

B4: gudB promoter probe (gudB_EMSA) (dsDNA)
DNA 1: GGAAATTCAATATGTTTGAAAGCGAATCATTAGGTAAAGAAGAGGCGAAAAGGATC
DNA 2: GATCCTTTTCGCCTCTTCTTTACCTAATGATTCGCTTTCAAACATATTGAATTTCC
binding result ([3]; label: biotin (5')): no binding
